Test results published in patent publication US10533231B2, “Artificial bioluminescent enzyme” (NATIONAL INSTITUTE OF ADVANCED INDUSTRIAL SCIENCE AND …, priority 2012, dated 2020).

How the values were obtained:
COS-7 cells [1] = assay: Toxicity of STS with luminescence measurement device and luminometer (Example 1-11); assay type: cell-based, monkey; settings: STS 1 μM, 10 minutes, membrane-localized probe
Experimental: (§1) Using the luminescence measurement device, the toxicity of a cell death-inducing chemical substance (STS) was measured (see FIG. 11). Monkey kidney-derived COS-7 cells were scattered in a commercially available microslide for cell culturing (produced by ibidi), and the cells were cultured until 90% of the microslide area was filled with the cells. The cells were transfected with a plasmid encoding a bioluminescence probe, followed by culturing for another 24 hours. The cells cultured in the microslide were stimulated with or without STS (final concentration: 1 μM) for 10 minutes (FIG. 11B).
The luminescence measurement was performed in the following manner. The microslide was washed once with an HBSS buffer, and a substrate-containing HBSS buffer (100 μL) was simultaneously introduced into each microslide channel, and the microslide was immediately fixed to the luminescent measurement device. […] The luminescence value was measured by changing the channels and the filters (three-second light condensation, n=3, see FIG. 11C).

COS-7 cells [2] = assay: Toxicity of STS by change in luminescence spectrum (Example 1-12); assay type: cell-based, monkey; settings: STS (1 μM) stimulation vs without, 10 minutes
Experimental: as §1, with “device of the present invention,” for “device,”, “measured based on changes in luminescence spectrum” for “measured”, “12). First, monkey” for “11). Monkey”, “for” for “for another”, “[…])” for “μM)”, “minutes.” for “minutes (FIG. 11B).”
The luminescence measurement was performed in the following manner. The microslide was washed once with an […] buffer, and a substrate-containing HBSS buffer (100 μL) was simultaneously introduced into each slide channel, and the microslide was mounted on the measurement device. After the device was covered with a mirror cap, the device was further mounted on a conventional spectrum meter (AB-1850; ATTO) (FIG. 12A). The luminescence spectrum from each channel was measured (two-minute light condensation, n=3, see FIG. 12B).

COS-7 cells [3] = assay: Cytotoxic measurement using bioluminescent capsule containing ALuc16 (Example 1-13); assay type: cell-based; settings: stimulated for two minutes, capsule SEQ ID NO: 19, LAS-4000
Experimental: The cytotoxicity of a chemical substance was measured using the bioluminescent capsule (SEQ ID NO: 19) containing ALuc 16 in its frame structure (FIG. 13). First, COS-7 cells were cultured in a 6-channel microslide, and a gene encoding SEQ ID NO: 19 was introduced into the cells, followed by culturing for another 16 hours. Subsequently, the cells were stimulated for two minutes with or without the cytotoxic substance (STS), and the luminescence image showing a bioluminescence intensity difference in a substrate-containing solution was evaluated using an LAS-4000 (FujiFilm).

COS-7 cells [4] = assay: Comparison of luminescence intensity of ALucs (Example 1-2); assay type: cell-based, African green monkey; settings: COS-7 cultured overnight, Promega assay solution, LAS-4000
Text: The artificial luciferase (ALuc) genes synthesized by the above process were subcloned into mammalian cell expression vectors (pcDNA3.1 (+)). Each expression vector was transfected with African green monkey kidney-derived COS-7 cells, and the luminescence intensity, luminescence stability, and red-shifted degree of artificial luciferases (ALucs) were compared (FIGS. 2 to 5).
First, the luminescence intensity of artificial luciferases (ALucs) was compared (FIG. 2). For the comparison, COS-7 cells containing a vector encoding each luciferase were cultured overnight, and then the relative luminescence intensity was measured by using an assay solution, which is a mixture of a cell lysis solution and a substrate, produced by Promega, and a luminescence image analyzer (LAS-4000).

COS-7 cells [5] = assay: Luminescence stability of ALucs after substrate injection (Example 1-3); assay type: cell-based, African green monkey; settings: Promega lysis and reaction solution
Experimental: The luminescence stability of the artificial luciferases (ALucs) of the present invention was examined in various respects (FIG. 3). COS-7 cells containing each luciferase gene were cultured for 9 hours, and treated with a cell lysis solution produced by Promega for 20 minutes. Temporal changes in luciferase luminescence intensity after the introduction of a substrate-containing reaction solution produced by Promega were observed every five minutes (FIG. 3A).
This experiment was expanded to artificial luciferases ALuc16 to ALuc25 (FIG. 3BC).

[6] = Heat resistance of ALucs in lysate (Example 1-4); assay type: physicochemical; settings: 80° C. for 10 minutes
Experimental: The heat resistance and degree of extracellular secretion of artificial luciferases of the present invention were measured (FIG. 4). First, to measure heat resistance, COS-7 cells containing each luciferase were lysed in cell lysis solutions produced by Promega to prepare lysates. Subsequently, same samples were allowed to stand at room temperature or heated at 80° C. for 10 minutes, and changes in luminescence intensity were compared by using a (substrate-containing) reaction solution produced by Promega.

COS-7 cells [7] = assay: Degree of extracellular secretion of ALucs (Example 1-4); assay type: cell-based, African green monkey; settings: luminescence intensity of the medium, overnight culture
Experimental: Further, each luciferase (ALuc) was introduced into COS-7 cells, culturing was performed overnight, and then the amount of each luciferase (ALuc) secreted from the cells was measured based on the luminescence intensity of the medium (FIG. 4B).

COS-7 cells [8] = assay: Mammalian two-hybrid assay with luciferase reporters (Example 1-9); assay type: cell-based, African green monkey
Experimental: First, using a known gene engineering technique, a novel reporter expression vector obtained by inserting a gene encoding MpLuc4 or ALuc16 into a commercially available reporter expression vector (pG5) was constructed. In addition, pG5-GLuc, which is the result of the researchers' previous study, was also prepared (FIG. 9A).
In addition to any one of the above three types of reporter expression vectors, a vector (pACT-MyoD) expressing a muscle regulatory factor (MyoD) and a vector (pBIND-ID) expressing a transcriptional regulator (ID) were cotransfected into COS-7 cells. After culturing overnight in a cell culturing device, a lysis solution and a substrate solution produced by Promega were used to cause a luminescent reaction, and difference in luminescence intensity varying according to the reporter difference was compared.
Along with the measurement, the luminescence value from the supernatant (medium) during cell culturing was simultaneously measured.

[9] = Prolonged activity stability of ALucs secreted in medium (Example 1-19); assay type: physicochemical
Experimental: The prolonged activity stability of the artificial luciferases (ALucs) developed in the present invention was examined. First, a plasmid expressing each artificial luciferase (ALuc16, ALuc22, ALuc23, ALuc24, ALuc25, and ALuc30) (in the figure, each is referred to as A16, A22, A23, A24, A25, and A30) was introduced into COS-7 cells, and then culturing was continued for 24 hours. By the culturing, each artificial luciferase was secreted into the medium. The artificial luciferase secreted in the medium was collected, and a difference in enzymatic activity was measured under the same conditions in the following manner. On the first day (Day 0), 50 μL of assay solution (containing native coelenterazine, produced by Promega) was added to 5 μL of each medium, and the luminescence value (enzymatic activity) was measured using an LAS-4000 (produced by FujiFilm). In the same manner, the luminescence value on Day 8, Day 16, and Day 25 was compared with the luminescence value on Day 0 (FIG. 19 (A)).

COS-7 cells [10] = assay: Enzymatic activity confirmation of ALuc (section 3-1, 3-2); assay type: cell-based, African monkey; settings: vs conventional copepod luciferases
Experimental: First, using a known lipid reagent for gene introduction, an expression vector encoding ALuc is introduced into African monkey-derived COS-7 cells; as a control, an expression vector having a known GLuc without any mutation into the cells is also introduced in the same manner. At a predetermined time (from 10 to 20 hours, for example, 16 hours) after the introduction of the vector, a cell lysate is prepared using a known lysis reagent.
Thereafter, the cell lysate is mixed with a known substrate solution containing coelenterazine, and its color intensity, temporal stability in luminescence, etc., are measured.
The luminescence intensity may be found by measuring the intensity at a specific wavelength using a known luminescence spectrophotometer after addition of a known substrate. By performing the measurement every minute, the temporal stability in luminescence can be evaluated. To measure a shift to a longer wavelength, scanning of the entire wavelength is necessary.

[11] = system: stress hormone receptor (glucocorticoid receptor ligand binding domain; GR HLBD); assay: Integrated-molecule-format bioluminescent probes, ALuc16 bisection sites (Example 1-10); assay type: cell-based; settings: presence/absence of cortisol
Text: First, ALuc was bisected into two segments, and arranged right and left. A stress hormone receptor (glucocorticoid receptor ligand binding domain; GR HLBD) and its binding peptide (LXXLL motif) were respectively connected to the end of the two segments. As shown in the lower row of FIG. 10A, the working mechanism of the probe is such that a molecule is folded in the presence of a ligand, thus recovering the luminescence intensity.
In the bisection of ALuc16, the probes were named as cSimgr8 (SEQ ID NO: 21) to cSimgr14 according to its bisection point. The bisection point corresponding to each plasmid is as follows: cSimgr8 (125/126), cSimgr9 (129/130), cSimgr10 (133/134), cSimgr11 (137/138), cSimgr12 (137/138; containing a mutant at the joint portion), cSimgr13 (141/142), and cSimgr14 (146/147).

COS-7 cells [12] = assay: Luminescence intensity of tag-containing ALucs secreted into medium (Example 1-21); assay type: cell-based; settings: culturing one day, Promega kit with nCTZ
Experimental: To compare the luminescence intensity of novel luciferases, a comparison experiment was performed under the same conditions as Example 1-2 (COS-7 cells, culturing for one day, using an assay kit produced by Promega) (FIG. 21 (B)). Finally, the luminescence intensity of each luciferase secreted into the medium was compared using an assay kit (containing native coelenterazine (nCTZ)) produced by Promega.

COS-7 cells [13] = assay: Luminescence characteristics of tag-containing ALucs (Example 1-22); assay type: cell-based; settings: medium two days after gene transfer
Experimental: To compare the relative luminescence intensity of these luciferases, the following experiment was conducted. First, a gene encoding each luciferase was subcloned into pcDNA3.1 (+), which is a eukaryotic expression vector, and each vector was introduced into COS-7 cells. Two days after gene transfer, the relative luminescence intensity of luciferase secreted into each medium was compared using a luminescence reagent produced by Promega.

## CN[C@@H]1C[C@H]2O[C@@](C)([C@@H]1OC)n1c3ccccc3c3c4c(c5c6ccccc6n2c5c31)C(=O)NC4 [STS]
COS-7 cells [1]
  increase of luminescence intensity: about 75%
COS-7 cells [2]
  change of luminescence spectrum: increase in the luminescence intensity in the full wavelength
COS-7 cells [3]
  luminescence intensity with vs without cytotoxic substance: two folds higher

B1: ALuc16: artificial luciferase, SEQ ID NO: 13 (protein)
chain: MMGIKVLFALICFALVQANPTENKDDIDIVGVEGKFGTTDLETDLFTIVEDMNVISRDTDVDANRADRGRRGKLPGKKLPLEVLKELEANAQKAGCTRGCLICLSHIKCTAKMKKWLPGRCESWEGDKETGQGGIGEAIVDIPEIPGFKDLEPMEQFIAQVDLCVDCTTGCLKGLANVKCSDLLKKWLPSRCATFASKIQAQVDKIKGAGGS
modifications: Synthetic ALuc16
COS-7 cells [4]
  luminescence intensity higher than that of conventional GLuc, Renilla luciferase and MpLuc4: about 50 folds
COS-7 cells [5]
  luminescence intensity (initial): advantageous initial luminescence intensity
[6]
  change of luminescence intensity by heating: a remarkable reduction in luminescence intensity that may be due to heating was not observed
COS-7 cells [7]
  extracellular secretion: relatively high extracellular secretion
COS-7 cells [8]; during cell culturing
  luminescence value from the supernatant (medium): slightly strong bioluminescence
COS-7 cells [8]; lysate, equal conditions, vs MpLuc4 and GLuc reporters
  luminescence intensity as two-hybrid reporter: highest luminescence intensity
[9]; Day 0 to Day 25
  prolonged enzymatic activity stability: significant decrease in enzymatic activity
[9]; after 25 days
  remaining enzymatic (luminescence) activity vs initial: 20%
COS-7 cells [10]
  luminescence stability (general statement): remarkably stable luminescence signals

B2: cSimgr8: integrated-molecule-format bioluminescent probe, ALuc16 bisected at 125/126, SEQ ID NO: 21 (protein)
chain: MNALLRYLLDKDGSGIGEAIVDIPEIPGFKDLEPMEQFIAQVDLCVDCTTGCLKGLANVKCSDLLKKWLPSRCATFASKIQAQVDKIKGAGGLSGSGGNPTENKDDIDIVGVEGKFGTTDLETDLFTIVEDMNVISRDTDVDANRADRGRRGKLPGKKLPLEVLKELEANAQKAGCTRGCLICLSHIKCTAKMKKWLPGRCESWEGDKETGQGGGGGTMNLEARKTKKKIKGIQQATTGVSQETSENPGNKTIVPATLPQLTPTLVSLLEVIEPEVLYAGYDSSVPDSTWRIMTTLNMLGGRQVIAAVKWAKAIPGFRNLHLDDQMTLLQYSWMFLMAFALGWRSYRQSSANLLCFAPDLIINEQRMTLPCMYDQCKHMLYVSSELHRLQVSYEEYLCMKTLLLLSSVPKDGLKSQELFDEIRMTYIKELGKAIVKREGNSSQNWQRFYQLTKLLDSMHEVVENLLNYCFQTFLDKTMSIEFPEMLAEIITNQIPKYSNGNIKKLLFHQK
modifications: Synthetic cSimgr8 (single-chain probe)
[11]
  S/N ratio of probe: good S/N ratio
  absolute luminescence intensity of probe: low absolute luminescence intensity

B3: ALuc34: artificial luciferase containing a Flag-tag, SEQ ID NO: 36 (protein)
chain: MMGIKVLFALICFALVQANMMDYKDDDDKVGVEGKFGTTDLETDLFTIVEDMNVISRDTDVDANRADRGRRGKLPGKKLPLEVLKELEANAQKAGCTRGCLICLSHIKCTAKMKKWLPGRCESWEGDKETGQGGIGEAIVDIPEIPGFKELAPMEQFIAQVDLCADCTTGCLKGLANVKCSALLKKWLPSRCAGFADKIQAQVDTIKGAGGS
modifications: Flag tag; Synthetic Aluc34
COS-7 cells [12]
  luminescence intensity of luciferase secreted into the medium: relatively high luminescence intensity
COS-7 cells [13]
  relative luminescence intensity: relatively high luminescence intensity
COS-7 cells [10]
  luminescence stability (general statement): remarkably stable luminescence signals
